Measurements from PMC4009068.

Tests used:
Atg19 C-terminus (yeast) = Atg19 C-terminus (yeast) (UniProt P35193); test: SEC
[1] = biological target: Atg19 (wild type full-length protein) (yeast) (UniProt P35193); test: ITC

stoichiometry N (Atg8 molecules per 1 Atg19 C-terminus) (Atg19 C-terminus (yeast)): 4.14 | Kd [1]: 35 µM
Substance: Atg8 (from UniProt P38182 1-117) (natural protein)
